Experimental findings from the nanobody polyreactivity screen of Harvey et al. (2022) are described below.

The nature of the series: yeast display, Sf9 membrane polyspecificity reagent, FACS + sequencing; frameworks hold sequencing errors. An outline of the steps:
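Synthetic nanobody libraries on Saccharomyces cerevisiae BJ5465 were galactose-induced for 36–48 hours, stained 1 hour at 4 °C with 10% biotinylated, detergent-solubilized Sf9 membrane reagent and enriched on streptavidin microbeads. FACS then separated cells into low and high (top ~1%) gates by anti-HA (expression) and streptavidin (reagent binding) fluorescence. Genes were colony-PCR amplified, MiSeq 2 × 250 sequenced and CDR-length filtered. A clone's polyreactivity label is that of its gate of origin.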
For the sequence “QVQLVESGGGLVQAGGSLRLSCAASGSTFPDNAMVWYRQAPGKEREFVATITWRGGRTNYADSVKGRFTISRDNAMNTVYLQMNSLKPEDTAFYYCDKVVRYARSNEYDTWGQGTQLTVSS”, the “polyreactivity (PSR sort gate)” value is listed as “low polyreactivity”. The entry for “QVQLEESGGRLVQPGGSLRLSCAASGFIFGIYDMGWYRQAPGKERELVAAITYSGSSTYYADSVKGRFTISRDNAKNTVYLQMNSLKPEDTAVYYCNKTAWDWDYWDPEYDYWGQGTQVTVSS” is “high polyreactivity”; for “QVQLVESGGGLVHAGGSLRLSSAASGRIFWYYALGWYRQPPGKERELVASIRGSGGSTYADSVKGRFTVSRENAKNTVYLPMNSLKPEDTAVYYCAASGRQRGHPMYYWRQGTQVTVSS” it is “high polyreactivity”; for “QVQLVESGGGLVQAGGSLRLSCAASGSTFAANTMGWYRQAPGKERELVAAITVRGGSTYYADSVKGRFTISRDNAKNTVYLQMNSLKPEDTAGYYGAAERPPYGYLVVGYVSTQYYYWGQGTQVTVSS” it is “low polyreactivity”. The entry for “QVQLVESGGGLVQAGGSLRLSCAASGYIFLRNALGWYRQAPGKERELVAAIRRTGGSTYYADSVKGRFTISRDNAKNTVYLQMNSLKPEDTAVYYCAKRSYTGYEYWGQGTQVTVSS” is “low polyreactivity”; for “QVQLVESGGGLVQAGGSLRLSCAASGSTLYFYAMGGYRQAPGKERELVADITWSGGSTYYADSVKGRFTISRDNAKNTVYLQMNSLKPEDTAVYYCNADDWSTYWYGYPGYVYWGQGTQVTVSS” it is “high polyreactivity”. The entry for “QVQLVESGGGLVQAGGSLRLSCAASGFTFSYNTMGWYRQAPGKERELVAAISGSGARTYYADSVKGRFTISRDNAKNSVYLQMNSLKPEDTAVYYCNAKYGYDSEARIVKPVRYDYWGQGTQVTVSS” is “high polyreactivity”; for “QVQLVESGGGLVQAGGSLRLSCADSGNTFPSYVMGWYRQAPGKERELVAAINRGGGTYYADSVKGRFTISRDNAKNTVYLQMNSLKPEDTAVYYCAVRYQRHPNMDYWGQGTQVTVSS” it is “low polyreactivity”. As for “QVQLVESGGGLVQAGGSLRLSCAASGRTFRYYAMGWYRQAPGKERELVAAISSSGDRTYYADSVKGRFTISRDNAKNTVYLQMNSLKPEDTAVYYCAADRGARGDYWGQGTQVTVSS”, the “polyreactivity (PSR sort gate)” value was “high polyreactivity”. The entry for “QVQLVESGGGLVQAGGSLRLSCAASGSIFSKNAMGWYRQAPGKERELLAAITLNGGSTYYADSVKGRFTNSRDNAKNTVYLQMNSLKPEDTSVFYFAKSDRQWWGYYYQFDYLGQGTQVTVSS” is “low polyreactivity”; for “QVQLVESGGGLVQAGGSLRLSCAASGRIFQRYAMGWYRQAPGKERELVAAISKNGGRTYYADSVKGRFTISRDNAKNTVYLQMNSLKPEDTAVYYCNKGTAGYEYAAFDYWGQGTQVTVSS” it is “low polyreactivity”; for “QVQLVDSGGGLVQAGGSLSLSCAASGSTFKHYAMGWYRQAPGKERELVAAISSRGGSTHYADSVKGRFTISRDNAKNTVYLQMNSLKPEDTAVYYCARDTDTLSSRSSDYDYWGQGTQVTVSS” it is “low polyreactivity”. Then “QVQLVESGGGLVQAGGSLRLSCAASGSIRHNTIGWYRQAPGKESEFVASISKRGGSTYYADSVKGRFTISRDNAKNTVYLQMNSLKPEDTAVYYCNAGAVTFVGRDYWGQGTQVTVSS”, with “high polyreactivity”. Then “QVQLVESGGGLVQAGGSLRVICAASGLIFYGYMGWSRQAPGKERELVAAISYTGGSTYYADSVKGRFTISRDNAKNTVYVQMNSLKPEDTAVYYCARDWRTKWFGYWGQGTQVTVSS”, with “low polyreactivity”; and “QDQLVESGGRIVQAGGSLRLSCAASGRIFSVYARGWYRQAPGKERELVATISDGGATTYYADSVKGRFTISRDNAKNTVFFQMNSLKPEDTAVYYCAADKRGRPGLPDYDSWGQGTEVTVSS”, with “low polyreactivity”. For “QVQLVESGGGLVQAGGSLRLSCAASGFTFSAYAMGWYRQAPGKERELVAAISWSGSRTYYADSVKGRFTISRDNAKNTVYLQMNSLKPEDTAVYYCAKEPYDTFGFYEYDYWGQGTQVTVSS”, the “polyreactivity (PSR sort gate)” value was “low polyreactivity”. With “QVQLVESGGGLVQAGGSLRLSCAASGRTFRAYAMGWYRQAPGKERELVAAITGGGSTKYADSVKGRFTISRDNAKNTVYLQMNSLKPEETAVYYCAATGRSGVLSSYYYWGQGTQVTVSS”, the “polyreactivity (PSR sort gate)” value is on record as “high polyreactivity”. With “QVQLVESGGGLVQAGGSLRLSCAASGSTFPVYAMGWYRQAPGKERELVATISYSGGSTNYADSVKGRFTISRDNAKNTVYLQMNSLIPEDTAVYYCAARKVNRGSGGYDSWGQGTQVTVSS”, the “polyreactivity (PSR sort gate)” value is given as “high polyreactivity”.

Consider “QDQRVESAGGLVQAGGSLRLSCAASGNIFDPNAMGGYRQAPGKERELVAAIRRGGSTNYADSVKGRFTISRDNAKNTVYLQMISLKPEDTAVYDCDKSRVSFTDLEGYYWGQGTLVTVSS”, for which the “polyreactivity (PSR sort gate)” value is “low polyreactivity”. The entry for “QVQLVDSGGGLVQAGGRLRLSCAASGNNFVEYAMGWYRPAPGKERELVAAITNSGGRTHYADSVKRRFTISRDNAKNTVYLQMNSLKPEDTGVYYCAAPTKYRSRRYYWGQGTLVTVSS” is “high polyreactivity”; for “QVQLVESGGGLVQAGGSHRLSCSASGRIFARNVMGWYRQAPGKERELVAAITYSGGRTYYADSVKGRFTISRDNAKNTVYLQMNSLKPEDTAVYYCNAKSFSPPGYRGFDYWGQGTQVTVSS” it is “low polyreactivity”; for “QVQLVESGGGLVQAGGSLRLSCAASGFIYSNNAMGWYRQAPGKERELVAAISASGSSTYYADSVKGRFTISRDNAKNTVYLQMNSLKPEDTAVYYCAAKSRTYQSYYYWGQGTQVTVSS” it is “high polyreactivity”.

As for “QVQLVESGGGLVQAGGSLRLSCAASGRIFYYYAMGWYRQAPGKERELVAAISWSGGSTYYADSVKGRFTISRDNAKNTVYLQMNSLKPEDTAVYYCAAESRKYREYYYWGQGTQVTVSS”, the “polyreactivity (PSR sort gate)” value was “high polyreactivity”. The entry for “QVQLVESGGGLVQAGGSLRLICAASGRIFGLYAMGWYRQAPGKERELVAGITYSGGTTYYADSVKGRFPISRDNAKNTVYLQMNSLKPEDTAVYYCNKRWYYQYGQSHVRLYDYWGQGTQVTVSS” is “high polyreactivity”; for “QVQLVESGEGLVQAGGSLRLSCAASGITFFRNTMGWYRHAPGKERELVAAISKSGDNTYYADSVKVRFTISRDNAKNTVYLQMNSLKPEDTAVYYCNKAYRKFYYGYDYWGQGTQVTVSS” it is “high polyreactivity”. Then “QVQLVESGGGLVQAGGSLRLSCAASGRTFRWNAMGWYRQAPGKERELVASITVNGGSTSYADSVKGRFTISRDNAKNTVYLQMNSLKPEDTAVYYCNAYYTYWYPRYDYWGQGTQVTVSS”, with “low polyreactivity”; and “QVQLVESGGGLVQAGGSLRLSCAASGFTFRTYAMGWYRQAPGKERELVAAITGSGGSTYYADSVKGRFTISRDNAKNTVYLQMNSLKPEDTAVYYCNAVERSAFRGVRFDYDYWGQGTQVTVSS”, with “high polyreactivity”.

“QVQLVESGGVLVQAGGSLRLSCAASGRIFDIYAMGWYRQAPGKERELVAGITWRAGSTYYADSVKGRFTISRDNAKNTVYLQMNSLKPEDSAVYFCARDYSRHKGDYWGQGTQVTVSS”: the “polyreactivity (PSR sort gate)” value is recorded as “low polyreactivity”. The entry for “QDQLVESGGGLVQAGGSLRLSCAATGRTFYFYTMGWYRQAPGKERELVATAITSGGSTNYADSVKGRFTISRDNAKNTVYLQMNSLKPEDTAVYYCAATLYWGWVFSYTSFDYWGQGTQVTVSS” is “low polyreactivity”; for “QVQLVESGGGLVQAGGSLRLSCAASGSIFELNAMGWSRQAPGKERELVAAITSSGSSTYYADSVKGRFTISRDNAKNTVYLQMNSLKPEDTAVYYCARDAFEPYDVGEYYYWGQGTQVTVSS” it is “low polyreactivity”. For “QVQLVESGGGLVQAGGSLRLSCAASGSIFGINVMGWYRHAPGKDREFVAAITSGTSTYYADSVKGRFTISRDNAKNSVYLQMNSLKPEDTAVYYCAALWSSRFVVHPQWYDYWGQGTQVTVSS”, the “polyreactivity (PSR sort gate)” value was “low polyreactivity”.

On to “LVQLVESGRGLVQAGGSLRLSCAASGSTFRINAMGWYRQAPGKERELVADINSGGNTTYADSVKGRFTISRDNAKNTVYLQMKSLIPEDTAVSYCAADPVFDLWEFLLDYGYDYWGQGSQVTVSS”, for which the “polyreactivity (PSR sort gate)” value is reported as “low polyreactivity”. The entry for “QVQLVESGGGLVQAGGSLRLSCAASGSIFYTYAMGWYRQAPGKERELVATIRVSGVSTYADSVKGRFTISRDNAKNTVYLQMNSLKPEDTAVYYCNKVSFYEPIYWQQGYVLLDYWGQGTQVTVSS” is “low polyreactivity”; for “QVQLVESGGALVQAGGSLRLSCAASGNTFIPNAMGWYRQAPGKERELVAAIRASGGSTYYADSVKGRFTISRDNAKNTVYLQMNSLKPEDTAVYYCNADIWYKTYDYWGQGTQVTVSS” it is “low polyreactivity”. The entry for “QVQLVESGGGLVQAGGSLRLSCAASGGTVYRNAMGWYRQAPGKERELVAAITRSGSTNYADSVKGRFTISRDNAKNTVYLQMNSLKPEDTAVYYCAAKFFRNTYSYGMDYWGQGTQVTVSS” is “high polyreactivity”. The entry for “QVQLVESGGGLVQAGGSLRLSCAASGFTFFRYAMGWYRQAPGKERELVASITSGGSTNYADSVKGRFTISRDNAKNTVYLQMNSLKPEDTAVYYCAAGSSFFRWVYEATGFYYWGQGTQVTVSS” is “high polyreactivity”. Turning to “QVQLVETGGGLVQAGGSLRLSCAASGSIFDGYAMGWYRQAPGKERDFVASIRFSTARTYYADSVKGRFTISRDNAKNTVYLQMNSLKPEDTAVYYCNAPQGFVWRYSSWGPYDYWGQGTQVTVSS”, the “polyreactivity (PSR sort gate)” value was “high polyreactivity”. Then “QVQLVESGGGLVQAGGSLRFSCAATGSISYGYAMGWYKQAHGKERELVAAISRRGGTTYFADSVKGRFTISRDNAKNSLYLQINSLKAEDTAVYYCNALLPDLAQYDYWGQGTQVTVSS”, with “high polyreactivity”; and “QVQLVESGGGLVQAGGSLRLSCAASGSTSVGNAMGWSRQAPGKERELVAAISRIGGTTYYADSVKGRFTISRDNAKNTVYLQMNSLKPEDPAVYYCNVLKRYWSGRVDYWGQGTQVTVSS”, with “high polyreactivity”. Then “QVQLVESGGGLVQAGGSLRLRCAASGRIVYWYAMGWYIQAPGKERELVATINQSGSSTYYADSVKGRFTISRDNAKNTVYLQMNSLKPEDTAVYYCARARSHYAYYWWNAGTGLDYWGQGTQVTVSS”, with “high polyreactivity”.
